In the RNAGym collection of RNA variant scans (doi:10.1073/pnas.2313332121):

B1: TPR t1 (parent)
chain: GACCAAUCUGCCCUCAGAGCUCGAGAACAUCUUCGGAUGCAGAGGAGGCAGGCUUCGGUGGCGCGAUAGCGCCAACGUCCUCAACCUCCAAUGCAUCCCACCACAUGAUGAUGCCUGAAGAGCCUUGGUUUUUUG

Variants of: B1
Assay: polymerase ribozyme fitness, log enrichment relative to wild type (log ratio); higher = more active; in vitro selection for triplet polymerase activity
How it was run: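 Input and output libraries were sequenced on Illumina after a single in vitro selection round, run in triplicate on PCR-built, transcribed mutant libraries of each subunit of a heterodimeric triplet polymerase ribozyme. Selection annealed libraries to a biotinylated primer, the partner subunit and triplets, incubated them frozen at −7 °C, then gel-excised extended constructs for streptavidin-bead capture and RT-PCR. Genotypes with ≥10 input reads and ≥1 read per output were kept. Fitness is the logarithm, taken in base 2, of genotype enrichment divided by wild-type enrichment, using inverse-variance-weighted replicate averages.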

| Variant | polymerase ribozyme fitness (log ratio) |
| --- | --- |
| C11U G71U G93A C104U | -1.26 |
| C34U G69U | -0.765 |
| A46U C64U C99U | -4.36 |
| C4U A16C C64U | -4.16 |
| G36U A46G | -0.974 |
| U112A G127A | 0.262 |
| C8G U9C C56G G69A | -2.35 |
| G120A G135C | 0.457 |
| C8U G117A A119U C123U U133G | -1.22 |
| G39U C40U G42A C56U | -2.23 |
| A41U G61A | -1.07 |
| C34A C64G | -6.42 |
| U33C C49A | -5.36 |
| A43U C70A | -3.22 |
| C34A G44A G48A G61U A121C C123G | -4.48 |
| A6U C12A A16U G19U G42A G63U G93A U106A G120A U130A | -7.49 |
| C85U U96C | -0.852 |
| C4A G69U A74G A90U U106A G117C | -4.9 |
| G48U U54C C101U U130G | -1.13 |
| C49A C82A | -1.17 |
| C11G G39A C53G | -0.759 |
| C73G G120A U129G | -1.1 |
| A5U U87A | -0.245 |
| A29G C88U | -1.2 |

| Variant | polymerase ribozyme fitness (log ratio) |
| --- | --- |
| G57C G61A G120A | 0.501 |
| A26U A66G | -4.28 |
| G71U G122U | -0.542 |
| C28G C86A G120C | -2.11 |
| G45C C70U A83C | -1.86 |
| G69U C85A | -1.08 |
| C12U G42C C62A G120U U126C | -1.07 |
| G48A C70A G120U G128A G135A | -2.26 |
| C99G A121U | -6.54 |
| U38A C73U C114A A121U | -1.65 |
| C4G C8G C53A U112G G120A | -2.51 |
| U78G C114U U129G | -4.71 |
| C11A A111C U131A | -2.03 |
| A90U G117U | -3.37 |
| C15U C73U C94A A111C | -2.53 |
| U21G G117A | -2.55 |
| A27C C62A A119G A121U | -2.98 |
| G61C A74U | -4.43 |
| G39A G51U U129G | -5.53 |
| G44U G120U U130G | -1.7 |
| A2U G10U A90C G122A | -3.13 |
| A16C G23C G61C G63A U87A A105G G110C | -7.62 |
| C22U A50G C104U | -3.86 |
| G47U C49G | -0.991 |

| Variant | polymerase ribozyme fitness (log ratio) |
| --- | --- |
| A24G A90C | -3.03 |
| G61U A121U | 1.48 |
| U78G G93A | -0.0742 |
| C62G C80U | -2.03 |
| A27G C72U C101A C104A | -4.48 |
| U38C G47U G61C A95C | -3.89 |
| A5U G45C G60A | -0.71 |
| A26U A95G | -2.46 |
| A50C C72A | 0.00514 |
| A6U C88U | -1.02 |
| U78G C102U | -1.93 |
| A2U C89G | -5.02 |
| C20A C62G A66C C104G U116C C123G G128U | -6.82 |
| C40A U78G C88G | -4.1 |
| G47C C64A C104U | -7.34 |
| C101A G120C | -0.0201 |
| A50G U112C U116A | -0.435 |
| G51U C70U | -3.37 |
| G58U G60A U87A A103U | -5.31 |
| G44A U96G | -2.12 |
| C49A G63U G65C G120C | -6.43 |
| U7C A29G G63U U81A U132C | -3.82 |
| C13U C56G U59G A95C | -2.3 |
| G44C U92G U112C | -0.938 |

| Variant | polymerase ribozyme fitness (log ratio) |
| --- | --- |
| G63U C99U | -4.73 |
| A5C A43U U78C G93C | -4.85 |
| C11U A18U C34U C64G C79U C123A | -5.92 |
| C13A C56G C89A A90U | -3.98 |
| C72A A83U C123G U126A | 0.126 |
| G60U G120A C124A | 1.48 |
| U7A C73A C82G | -0.0183 |
| C28A G110A | -0.364 |
| G69C A95G | -1.13 |
| A5G C56G | -0.49 |
| C72A G120U | 0.158 |
| C13G G48U C53A | -2.34 |
| A29U C40A G52C G110U | -3.01 |
| C8A G93C | 0.003 |
| G35A G48C C123G | -2.75 |
| G48A G127C | -2.52 |
| C56U G60U U87A | -3.76 |
| U7A C62G C86U | -1.24 |
| G113A C115A | -3.51 |
| A37U G51C C88A | -5.1 |
| C4G G44A A46U U59C | -3.73 |
| A18C G58U G69C C89U U106A G110U | -4.7 |
| C20U A43G C62U U112C | -1.04 |
| A6U C13U G39C | -0.104 |

| Variant | polymerase ribozyme fitness (log ratio) |
| --- | --- |
| C28U G42U G44U G61U | -4.27 |
| G120U G127C | -0.262 |
| A27U U78C | -2.98 |
| U78C G127U | -1.04 |
| C11U G52U A83U G110C C123U | -5.57 |
| C40G G52A C62U G128C | -3.34 |
| C53G G120A | 0.668 |
| C53U C72G C88U A105G | -2.32 |
| C13G G63C C70A C124A | 0.905 |
| A18G A43U G71U U87C | -4.47 |
| C13G A37G A41C A121U | -0.739 |
| G19U C53G C73A U112A G135A | -0.754 |
| C73A U87A G120C C124A U132G | -4.42 |
| A26U G71A C82U | -4.08 |
| C88G U130G | -0.5 |
| G36U C40U G51U A68G C72U A111U A119C G120A | -8.09 |
| C13U C70A | -0.46 |
| C13G C72U | -1.8 |
| C13A A16U C101G | -4.02 |
| U78C U130C | 0.0983 |
| G77U C88G U92A G113C G122A C123G | -4.68 |
| C22U G45U | -4.99 |
| C70U A83C A108G | -2.22 |
| C20G U32G C80A C99A C124G | -5.93 |

| Variant | polymerase ribozyme fitness (log ratio) |
| --- | --- |
| C11G G48A | -0.377 |
| U14A A41C | -4.27 |
| U78A C80A C94G U133A | -6.19 |
| C86U A103C | -5.52 |
| C20G G69A G113A | -5.37 |
| A50U C64U | -0.813 |
| U112C | 1.39 |
| A18U A43U | -1 |
| U38G C89A U96A C114G | -5.44 |
| C3G C22A | -4.35 |
| A95U G120A | -0.385 |
| G42C C64A | -7.59 |
| G39U C62A C70U | -2.07 |
| A2G U87A U112A | 1.3 |
| C11U U33G | -5.16 |
| U78A C79A A95C U133A | -4.23 |
| U59A G63C C82A G127A | -2.72 |
| C4U A16U G42U U59G A84U | -4.24 |
| G39C U55A C56A G63U A121U | -4.47 |
| C104A G135U | -2.01 |
| C70A U78C G113A | -2.47 |
| G52A U59A | 0.487 |
| U106A C123U | 0.563 |
| G63U C89U A90G U112A C123G | 0.558 |

| Variant | polymerase ribozyme fitness (log ratio) |
| --- | --- |
| G58C C86A C89G | -4.05 |
| A43U A46G U55G | -1.34 |
| C12U C15U G45U G69C C82A C101U | -2.95 |
| A50G A91C | -1.05 |
| U54C G61U G71U C82U A83U C114U | -5.85 |
| U9A G39C C62A U78A U87G G110U | -5.8 |
| C49A U87C | 0.179 |
| A29U C62U | -1.3 |
| C64A C88G G110U | -6.03 |
| C99U G122U | -3.2 |
| U9G G39A | 0.968 |
| A27G G60U | -1.6 |
| A121C U129A | -1.04 |
| A6G C15U C56U G69U U112A G117A | -1.54 |
| G60A G110U | -1.74 |
| U7C C56G U78C A84U G113C | -2.73 |
| C12U A43U | -1.51 |
| G61A A111C | -0.072 |
| C4A U9A A43U C56A A83C U126A | -4.76 |
| A41G G51A A90C | -5.76 |
| C79U C89U C102U G120C | -2.83 |
| G77U C123U | 1.47 |
| A50U G52A A84U G128U | -5.16 |
